Source: article PMC11141937 (JCI Insight, 2024)

How the values were obtained:
[1] = biological target: SARS-CoV-2 Omicron BA.1 S protein on S-293T cells (SARS-CoV-2 Omicron BA.1, strain); assay: flow cytometry on cells; settings: one partner purified
[2] = biological target: SARS-CoV-2 Omicron BA.2 S protein on S-293T cells (SARS-CoV-2 Omicron BA.2, strain); assay: flow cytometry on cells; settings: one partner purified
[3] = biological target: SARS-CoV-2 Omicron BA.4/5 S protein on S-293T cells (SARS-CoV-2 Omicron BA.4/5, strain); assay: flow cytometry on cells; settings: one partner purified
[4] = biological target: SARS-CoV-2 Delta S protein on S-293T cells (SARS-CoV-2 Delta (B.1.617.2), strain); assay: flow cytometry on cells; settings: one partner purified
[5] = biological target: SARS-CoV-2 Delta S protein ectodomain (SARS-CoV-2 Delta (B.1.617.2), strain); assay: BLI; settings: both partners purified
[6] = biological target: SARS-CoV-2 Omicron BA.2 S protein ectodomain (SARS-CoV-2 Omicron BA.2, strain); assay: BLI; settings: both partners purified

Measured: binding result

B1: O5C2 mAb (antibody, V domains shown)
VH: EVQLVESGGGLIQPGGSLRLSCAASGIIVSRNYMSWVRQAPGKGLEWVSILYAGGSSFYAEPVQGRFTVSRDNSKNTLFLEMNSLRVEDTAVYYCARDLQWGIDIWGQGAMVTVSS
VL: DIQMTQTPPSLSASVGDRVSISCRASQSTGSWLAWYQQKPGKAPKLLIYKTSSLESGVPSRFSGSGSGTEFTLTISSLQPDDVATYYCQHYDTYSSTFGQGTKVEIK
binds: all assays above
